These results are taken from patent US20200079876A1 (BIOVERATIV USA, published 2020).

Where only a bound is given, the exact number is not on record here.

Assay [1] concerns the target T1, recombinant human complement component C1s (rhC1s) (human, UniProt P09871 16-688).
T1 sequence (looked up): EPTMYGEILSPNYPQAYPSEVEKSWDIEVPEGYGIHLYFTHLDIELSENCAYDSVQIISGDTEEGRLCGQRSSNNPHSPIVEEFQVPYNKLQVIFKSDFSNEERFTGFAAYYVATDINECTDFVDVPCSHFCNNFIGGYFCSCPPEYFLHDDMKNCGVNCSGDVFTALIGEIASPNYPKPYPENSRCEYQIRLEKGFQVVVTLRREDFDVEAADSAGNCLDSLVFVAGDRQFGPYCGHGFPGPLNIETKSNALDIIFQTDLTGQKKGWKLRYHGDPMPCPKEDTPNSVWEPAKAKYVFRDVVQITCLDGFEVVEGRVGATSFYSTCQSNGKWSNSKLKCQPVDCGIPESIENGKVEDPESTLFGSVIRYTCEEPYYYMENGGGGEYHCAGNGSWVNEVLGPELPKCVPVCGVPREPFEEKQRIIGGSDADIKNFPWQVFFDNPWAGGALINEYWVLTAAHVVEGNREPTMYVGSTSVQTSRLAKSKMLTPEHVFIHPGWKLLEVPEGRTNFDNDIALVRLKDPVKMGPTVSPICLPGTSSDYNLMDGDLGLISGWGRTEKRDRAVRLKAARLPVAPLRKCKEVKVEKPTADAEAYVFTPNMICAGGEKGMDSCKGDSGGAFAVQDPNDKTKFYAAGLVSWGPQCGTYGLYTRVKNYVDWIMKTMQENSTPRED
Kind of assay: cell-based or functional assay.

Assay [2] addresses T2, Pro-C1s.
T2 construct: also called purified pro-C1s protein
T2 chain: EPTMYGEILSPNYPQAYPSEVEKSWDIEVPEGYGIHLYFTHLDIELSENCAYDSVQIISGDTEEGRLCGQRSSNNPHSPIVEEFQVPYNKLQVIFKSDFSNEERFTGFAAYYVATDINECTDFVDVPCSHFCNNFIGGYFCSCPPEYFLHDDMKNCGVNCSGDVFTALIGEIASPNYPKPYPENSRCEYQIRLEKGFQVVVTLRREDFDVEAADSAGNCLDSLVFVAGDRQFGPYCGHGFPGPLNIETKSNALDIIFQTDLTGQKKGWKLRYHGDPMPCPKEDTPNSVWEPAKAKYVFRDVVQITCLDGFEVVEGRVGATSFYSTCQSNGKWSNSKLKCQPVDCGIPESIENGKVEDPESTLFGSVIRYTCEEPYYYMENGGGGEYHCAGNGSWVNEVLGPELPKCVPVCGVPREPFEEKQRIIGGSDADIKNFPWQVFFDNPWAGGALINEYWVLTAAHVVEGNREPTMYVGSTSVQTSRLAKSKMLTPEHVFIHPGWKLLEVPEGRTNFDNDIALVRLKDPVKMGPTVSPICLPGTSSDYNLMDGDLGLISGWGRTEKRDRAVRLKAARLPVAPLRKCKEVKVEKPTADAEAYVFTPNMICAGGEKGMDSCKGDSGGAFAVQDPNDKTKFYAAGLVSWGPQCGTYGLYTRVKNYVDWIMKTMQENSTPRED
The experiment in a line: bio-layer interferometry (BLI), kinetic analysis.

For assay [3], the target named is T3, purified human activated C1s protein, two-chain form (Homo sapiens, UniProt P09871 16-688).
T3 construct: Purified protein bought from EMD Millipore; Biotin-labeled in the clone screen; also called active C1s; native C1s protein
T3 sequence: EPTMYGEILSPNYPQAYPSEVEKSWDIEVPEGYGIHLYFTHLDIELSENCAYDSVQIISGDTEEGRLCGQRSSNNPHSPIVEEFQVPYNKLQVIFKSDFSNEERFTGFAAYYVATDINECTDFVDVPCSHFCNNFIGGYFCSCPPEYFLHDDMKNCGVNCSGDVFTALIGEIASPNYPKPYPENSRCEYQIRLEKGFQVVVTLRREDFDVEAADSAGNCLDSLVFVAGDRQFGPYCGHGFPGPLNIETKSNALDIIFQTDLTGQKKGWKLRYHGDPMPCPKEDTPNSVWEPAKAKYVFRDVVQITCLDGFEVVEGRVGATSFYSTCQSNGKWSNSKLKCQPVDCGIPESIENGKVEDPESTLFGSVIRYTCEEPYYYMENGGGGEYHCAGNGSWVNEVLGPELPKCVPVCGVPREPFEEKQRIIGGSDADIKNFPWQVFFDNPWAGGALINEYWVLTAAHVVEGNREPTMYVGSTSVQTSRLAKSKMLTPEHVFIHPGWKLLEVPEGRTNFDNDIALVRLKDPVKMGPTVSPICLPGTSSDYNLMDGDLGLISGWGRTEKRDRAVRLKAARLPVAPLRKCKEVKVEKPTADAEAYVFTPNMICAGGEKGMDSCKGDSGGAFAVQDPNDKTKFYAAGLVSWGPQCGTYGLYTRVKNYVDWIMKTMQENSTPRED
Kind of assay: bio-layer interferometry (BLI), kinetic analysis.

In assay [4] the target is T1, recombinant human complement component …. The experiment in a line: cell-based or functional assay. This is another data set of the same source.

B1: antibody IPN-M14 (antibody, V domains shown)
VH: EVKLQQSGAELVRPGASVKLSCTASGFNIKDDYIHWVKQRPEQGLEWIGRIDPADGHTKYAPKFQVKATITADTSSNTAYLQLSSLTSEDTAVYYCARYGYGREVFDYWGQGTTLTVSS
VL: DIVLTQFPTFLAVFLGQRAPISCKASQSVDYDGDSYMNWFQQKTGQPPKILIYDASNLEFGIPTRFSGSGFGTDFPLNIHPVEEEDAAIYFCQQSNEDPWTFGGGPKLEIK
notes: Mouse monoclonal antibody (NZBW hybridoma)
As for B1, the “Inhibition of C1s Protease Activity (%), single point with clone supernatant, relative to 100 nM nafamostat” value in assay [1] was 100%. In assay [2], the dissociation constant Kd is 13.5 nM, the off-rate constant (koff) worked out at 0.000223 s⁻¹ and the on-rate (kon) amounted to 16500 M⁻¹ s⁻¹. In assay [3], this molecule registered an equilibrium dissociation constant (Kd) of 0.207 nM, a koff of 0.000231 s⁻¹ and a kon of 1.12e+06 M⁻¹ s⁻¹. Besides, the “inhibition of C1s protease activity (relative to nafamostat)” value (“inhibition … (relative to nafamostat)” below) in assay [4] was more than 50%.

B2: antibody IPN-M8 (antibody, V domains shown)
VH: EVKLQQSGAELVRPGASVKLSCTASGFNIKDDYIHWVKQRPEQGLEWIGRIDPADGHTKYAPKFQVKATITADTSSNTAYLQLSSLTSEDTAVYYCARYGYGREVFDYWGQGTTLTVSS
VL: DIVLTQSPASLAVSLGQRATISCKASQSVDYDGDSYMNWYQQKTGQPPKILIYDASNLESGIPARFSGSGSGTDFTLNIHPVEEEDAAIYYCQQSNEDPWTFGGGTKLEIK
notes: Mouse monoclonal antibody (NZBW hybridoma); Same VL and VH as IPN-M2
For the molecule B2, the “Inhibition of C1s Protease Activity (%), single point with clone supernatant, relative to 100 nM nafamostat” value in assay [1] amounted to 100%. Also, in assay [2], the Kd was determined as 19.7 nM, the koff came out at 0.000178 s⁻¹ and the kon was determined as 9080 M⁻¹ s⁻¹. In assay [3], this molecule came in with a Kd of 0.213 nM, a koff of 0.000234 s⁻¹ and an on-rate constant (kon) of 1.12e+06 M⁻¹ s⁻¹. Further, in assay [4], the “inhibition … (relative to nafamostat)” value was more than 50%.

B3: antibody IPN-M3 (antibody, V domains shown)
VH: EVQLQQSGAELVRPGASVKLSCTASGFNIKDDYIHWVKQRPEQGLEWIGRIDPADDHTKYAPKFQDKATMTADTSSNTACLQLNSLTSEDTAVYYCAIYGSGWAWFPYWGQGTLVSVSA
VL: DIVLTQSTDYLAVSLGQRATISCKASQSVDYDGDSYMNWYQQKPGQPPKLLIYAASNLESGIPARFSGSGSGTDFTLNIHPVEEEDAATYYCQQSNEDPWTFGGGTKLEIK
notes: Mouse monoclonal antibody (NZBW hybridoma); Same VL and VH as IPN-M1 and IPN-M13
Take B3: the “Inhibition of C1s Protease Activity (%), single point with clone supernatant, relative to 100 nM nafamostat” value in assay [1] worked out at 89%. Further, in assay [2], the Kd was 102 nM, the koff worked out at 0.00041 s⁻¹ and the kon stood at 4040 M⁻¹ s⁻¹. Also, in assay [3], the dissociation constant Kd was found to be 0.187 nM, the off-rate constant (koff) was determined as 0.000158 s⁻¹ and the on-rate (kon) stood at 845000 M⁻¹ s⁻¹. Further, in assay [4], the “inhibition … (relative to nafamostat)” value was more than 50%.

B4: antibody IPN-M13 (antibody, V domains shown)
VH: EVQLQQSGAELVRPGASVKLSCTASGFNIKDDYIHWVKQRPEQGLEWIGRIDPADDHTKYAPKFQDKATMTADTSSNTACLQLNSLTSEDTAVYYCAIYGSGWAWFPYWGQGTLVSVSA
VL: DIVLTQSTDYLAVSLGQRATISCKASQSVDYDGDSYMNWYQQKPGQPPKLLIYAASNLESGIPARFSGSGSGTDFTLNIHPVEEEDAATYYCQQSNEDPWTFGGGTKLEIK
notes: Mouse monoclonal antibody (NZBW hybridoma); Same VL and VH as IPN-M1 and IPN-M3
On to B4, for which the “Inhibition of C1s Protease Activity (%), single point with clone supernatant, relative to 100 nM nafamostat” value in assay [1] stood at 96%. In assay [2], this molecule displayed a Kd of 15.9 nM, a dissociation rate constant (koff) of 0.000258 s⁻¹ and an association rate constant (kon) of 16200 M⁻¹ s⁻¹. In assay [3], this molecule displayed a Kd of 0.133 nM, a koff of 0.000113 s⁻¹ and a kon of 851000 M⁻¹ s⁻¹. The “inhibition … (relative to nafamostat)” value in assay [4] was more than 50%.

B5: antibody IPN-M11 (antibody, V domains shown)
VH: QVQLQQSGAELVRPGASVKLSCTASGFNIKDDYIHWVKQRPEQGLEWIGRIDPADDHTKYAPKFQDKATMTADTSSNTACLQLNSLTSEDTAVYYCAIYGSGWAWFPYWGQGTLVSVSA
VL: DIVMTQSPDYLAVSLGQRAPISCKASQSVDYDGDSYMNWYQQKPGQPPKLLIYAASNLEFGIPTRFSGSGFGTDFPLNIHPVEEEDAATYYCQQSNEDPWTFGGGPKLEIK
notes: as for B1
With B5, the “Inhibition of C1s Protease Activity (%), single point with clone supernatant, relative to 100 nM nafamostat” value in assay [1] stood at 92%. Also, in assay [2], the Kd came to 35.2 nM, the koff was 0.000329 s⁻¹ and the on-rate (kon) was 9330 M⁻¹ s⁻¹. In assay [3], the Kd came to 0.21 nM, the koff was found to be 0.000182 s⁻¹ and the kon came out at 864000 M⁻¹ s⁻¹. Also, the “inhibition … (relative to nafamostat)” value in assay [4] was more than 50%.
